Article PMC3161976

Columns and labels:
[1] = target: GST-Tnp3 (Transportin 3), full length (human) (UniProt Q9Y5L0); assay: pull-down; GST-Tnp3, GST-Tnp3 DC825 or GST-Xpo-t held on glutathione-Sepharose 4B beads, with purified HIV-1 vector disrupted by gentle sonication (50 µl), with or without RanQ69L-GTP; binding buffer 50 mM Hepes pH 7.3, 200 mM NaCl, 2 mM Mg(Ac)2, 10 µM GTP; 4°C; silver stain and Western blot with anti-capsid antibody, ImageJ quantification
[2] = target: GST-Tnp3 DC825 deletion mutant (human) (UniProt Q9Y5L0); assay: as above
Sequence of GST-Tnp3 DC825 deletion mutant (human) (Q9Y5L0 1-825, stated change not applied): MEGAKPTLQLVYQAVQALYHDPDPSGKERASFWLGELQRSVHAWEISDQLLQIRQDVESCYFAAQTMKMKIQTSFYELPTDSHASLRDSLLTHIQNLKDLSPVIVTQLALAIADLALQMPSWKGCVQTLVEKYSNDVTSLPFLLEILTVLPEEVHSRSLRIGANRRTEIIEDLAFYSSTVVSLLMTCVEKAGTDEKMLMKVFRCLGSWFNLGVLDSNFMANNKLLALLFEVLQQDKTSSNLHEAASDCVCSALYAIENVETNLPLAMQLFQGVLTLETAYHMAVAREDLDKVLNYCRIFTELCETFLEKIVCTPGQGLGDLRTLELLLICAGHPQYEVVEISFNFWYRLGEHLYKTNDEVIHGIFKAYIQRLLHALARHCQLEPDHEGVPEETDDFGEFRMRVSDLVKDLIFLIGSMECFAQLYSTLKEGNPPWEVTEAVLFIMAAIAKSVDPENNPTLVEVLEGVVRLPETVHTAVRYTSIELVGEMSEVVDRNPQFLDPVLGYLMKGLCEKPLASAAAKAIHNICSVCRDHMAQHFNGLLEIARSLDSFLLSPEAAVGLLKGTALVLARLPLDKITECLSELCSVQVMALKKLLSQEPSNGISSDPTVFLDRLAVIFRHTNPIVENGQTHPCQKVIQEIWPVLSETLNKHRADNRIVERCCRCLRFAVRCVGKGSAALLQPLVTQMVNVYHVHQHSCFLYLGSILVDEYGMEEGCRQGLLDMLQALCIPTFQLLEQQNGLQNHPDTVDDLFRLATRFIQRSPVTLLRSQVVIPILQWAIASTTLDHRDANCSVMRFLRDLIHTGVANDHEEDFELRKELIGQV

Sequence of GST-Tnp3 (Transportin 3), full length (human) (Q9Y5L0 whole entry): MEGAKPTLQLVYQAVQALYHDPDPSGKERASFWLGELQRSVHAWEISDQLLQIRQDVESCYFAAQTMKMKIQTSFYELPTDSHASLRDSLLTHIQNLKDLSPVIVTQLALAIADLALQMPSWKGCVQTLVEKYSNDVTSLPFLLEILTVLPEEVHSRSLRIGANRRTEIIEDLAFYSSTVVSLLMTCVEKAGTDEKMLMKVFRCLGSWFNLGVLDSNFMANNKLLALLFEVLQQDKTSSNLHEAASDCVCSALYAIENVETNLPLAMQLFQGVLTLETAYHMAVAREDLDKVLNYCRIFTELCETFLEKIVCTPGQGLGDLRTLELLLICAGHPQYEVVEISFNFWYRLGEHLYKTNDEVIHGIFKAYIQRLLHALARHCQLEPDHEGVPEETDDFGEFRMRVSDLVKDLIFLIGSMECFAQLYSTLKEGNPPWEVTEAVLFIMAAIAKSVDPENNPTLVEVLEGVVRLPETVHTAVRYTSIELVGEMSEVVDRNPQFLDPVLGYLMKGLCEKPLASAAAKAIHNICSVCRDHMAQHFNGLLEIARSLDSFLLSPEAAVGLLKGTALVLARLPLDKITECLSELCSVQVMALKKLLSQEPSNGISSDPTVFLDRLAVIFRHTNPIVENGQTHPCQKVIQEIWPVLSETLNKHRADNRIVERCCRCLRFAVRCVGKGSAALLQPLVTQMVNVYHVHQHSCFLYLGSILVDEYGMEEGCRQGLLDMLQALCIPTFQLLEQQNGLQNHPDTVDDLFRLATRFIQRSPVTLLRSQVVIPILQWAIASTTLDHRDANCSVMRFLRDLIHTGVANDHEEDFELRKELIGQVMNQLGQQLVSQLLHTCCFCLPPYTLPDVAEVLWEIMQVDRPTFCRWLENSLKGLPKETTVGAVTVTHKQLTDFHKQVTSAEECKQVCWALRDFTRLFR

For “HIV-1 capsid protein (CA, p24) of purified HIV-1 vector particles (natural protein)”, which fold increase of binding with RanGTP against without [1] is on record?
The fold increase of binding with RanGTP against without was 2.5 fold.

What about the fold reduction of binding against full-length Tnp3 [2] of the same substance?
The fold reduction of binding against full-length Tnp3 was 3 fold.
